Common to all, as to assay: cell_activity
One data set has as its system ZFN 34480 (synthetic). The note with it: pair 34480/34481, A-genome; B 11946, D 11790; wheat protoplasts.
The next data set concerns ZFN 34479 (synthetic). The settings on record: pair 34478/34479, A-genome; B 2731, D 3069; wheat protoplasts.
For another data set, the system named is ZFN 34473 (synthetic). The settings on record: pair 34472/34473, A-genome; B 100300, D 87770; wheat protoplasts.
The next data set deals with ZFN 34477 (synthetic). The settings on record: pair 34476/34477, A-genome; B 56001, D 44459; wheat protoplasts.
In a further data set the test system is ZFN 34476 (synthetic). The note with it: pair 34476/34477, A-genome; B 56001, D 44459; wheat protoplasts.
In the next data set the test system is ZFN 34471 (synthetic). The settings on record: pair 34470/34471, A-genome; B 156139, D 134694; wheat protoplasts.
The next data set has as its system ZFN 34456 (synthetic). The note with it: pair 34456/34457, A-genome; B 1716, D 10399; wheat protoplasts.
A further data set concerns ZFN 34483 (synthetic). The note with it: pair 34482/34483, A-genome; B 33888, D 28719; wheat protoplasts.
Another data set relates to ZFN 34475 (synthetic). The note with it: pair 34474/34475, A-genome; B 251142, D 202711; wheat protoplasts.
The test system of the next data set is ZFN 34474 (synthetic). The settings on record: pair 34474/34475, A-genome; B 251142, D 202711; wheat protoplasts.
A further data set concerns ZFN 34478 (synthetic). The settings on record: pair 34478/34479, A-genome; B 2731, D 3069; wheat protoplasts.
A further data set concerns ZFN 29730 (synthetic). The note with it: pair 29732/29730, D-genome, donor pDAS000152 10:1, SEC protoplasts; A 6717, B 6306.
In another data set the test system is ZFN 34482 (synthetic). The settings on record: pair 34482/34483, A-genome; B 33888, D 28719; wheat protoplasts.
In the next data set the test system is ZFN 34470 (synthetic). The note with it: pair 34470/34471, A-genome; B 156139, D 134694; wheat protoplasts.
In the next data set the test system is ZFN 29732 (synthetic). The settings on record: pair 29732/29730, D-genome, donor pDAS000152 10:1, SEC protoplasts; A 6717, B 6306.
A further data set concerns ZFN 34481 (synthetic). The settings on record: pair 34480/34481, A-genome; B 11946, D 11790; wheat protoplasts.
In another data set the test system is ZFN 34472 (synthetic). The settings on record: pair 34472/34473, A-genome; B 100300, D 87770; wheat protoplasts.
The next data set has as its system ZFN 34457 (synthetic). The settings on record: pair 34456/34457, A-genome; B 1716, D 10399; wheat protoplasts.

Take “ACCATGGGGATGGAGTCGAGGAGNGCGT (double strand) [34480 site]”: the activity (NHEJ events per million reads) in the data set on ZFN 34480 (synthetic) is 11800. In the case of “TGGTCGCCATCACGGGCCAGGTCCCCCG (double strand) [34479 site]”, the activity (NHEJ events per million reads) in the data set with ZFN 34479 (synthetic) turned out to be 3070. For the sequence “GCGTCGCCACCTCCGGCCCGGGGGCCAC (double strand) [34473 site]”, in the data set with ZFN 34473 (synthetic), the activity (NHEJ events per million reads) was determined as 120000. Sequence “CCTCCGGCCCGGGGGCCACCAACCTCGT (double strand) [34477 site]” yielded an activity (NHEJ events per million reads) in the data set on ZFN 34477 (synthetic) of 48300. In the case of “GCGACGCAGACGCCGACGCGGCCGGACG (double strand) [34476 site]”, the activity (NHEJ events per million reads) in the data set on ZFN 34476 (synthetic) worked out at 48300. For the sequence “CGTCGGCGTCTGCGTCGCCACCTCCGGC (double strand) [34471 site]”, the activity (NHEJ events per million reads) in the data set on ZFN 34471 (synthetic) is 178000. Consider “CNGCGGCCATGGCGGCGGCGAGGGTTTG (double strand) [34456 site]”, for which the activity (NHEJ events per million reads) in the data set on ZFN 34456 (synthetic) was 12600. Take “CATCACGGGCCAGGTCCCCCGCCGCATG (double strand) [34483 site]”: in the data set on ZFN 34483 (synthetic), the activity (NHEJ events per million reads) is 28700. For “GTCGCCACCTCCGGCCCGGGGGCCACCA (double strand) [34475 site]”, the activity (NHEJ events per million reads) in the data set with ZFN 34475 (synthetic) was 248000. As to “CAGACGCCGACGCGGCCGGACGCGCGGG (double strand) [34474 site]”, in the data set on ZFN 34474 (synthetic), the activity (NHEJ events per million reads) worked out at 248000. As for “GGGATGGAGTCGAGGAGNGCGTCNGCGA (double strand) [34478 site]”, the activity (NHEJ events per million reads) with ZFN 34478 (synthetic) came out at 3070.

The sequence “AGGCAGCACGTGCTCCTGATGCGGGACT (double strand) [29730 site]” returned an activity (ppm NHEJ editing) in the data set on ZFN 29730 (synthetic) of 7910. Consider “CGACCATGGGGATGGAGTCGAGGAGNGC (double strand) [34482 site]”, for which, in the data set with ZFN 34482 (synthetic), the activity (NHEJ events per million reads) was found to be 28700. In turn, “GGCCGGACGCGCGGGCGTANCCGGACGC (double strand) [34470 site]” yielded an activity (NHEJ events per million reads) with ZFN 34470 (synthetic) of 178000. Turning to “GATCCCAAGCGGTGGTGCTTTCAAGGAC (double strand) [29732 site]”, in the data set on ZFN 29732 (synthetic), the activity (ppm NHEJ editing) turned out to be 7910. On to “CCATCACGGGCCAGGTCCCCCGCCGCAT (double strand) [34481 site]”, for which the activity (NHEJ events per million reads) in the data set on ZFN 34481 (synthetic) worked out at 11800. “ACGCCGACGCGGCCGGACGCGCGGGCGT (double strand) [34472 site]” returned an activity (NHEJ events per million reads) with ZFN 34472 (synthetic) of 120000. In the data set on ZFN 34457 (synthetic), “ACCTCCCCCGCCGTCGCATTCTCNGGCG (double strand) [34457 site]” registered an activity (NHEJ events per million reads) of 12600.

These data come from US20140304853.
